Measured values reported in publication PMC9569990 (International Journal of Molecular Sciences, 2022).

Assays:
Assay in all cases: SPR; cytokine immobilised on ProteOn GLH sensor chip by amine coupling (9,000-14,000 RU); S100P (wild type or mutant) as analyte, 62 nM-16 µM; 25 °C; 10 mM HEPES, 150 mM NaCl, 1 mM CaCl2, 0.05% TWEEN 20, pH 7.4; heterogeneous ligand model (two ligand populations), one-site model for IL-13; values averaged over analyte concentrations (n = 3-5)
Conditions in all cases: both partners purified
Interleukin-10 = biological target: T1, Interleukin-10 (human, UniProt P22301 19-178)
T1 construct: Interleukin-10, human, UniProt P22301; see the manufacturer's catalogue number; also called IL-10; source: bought: PeproTech (source E. coli)
T1 sequence (P22301 19-178): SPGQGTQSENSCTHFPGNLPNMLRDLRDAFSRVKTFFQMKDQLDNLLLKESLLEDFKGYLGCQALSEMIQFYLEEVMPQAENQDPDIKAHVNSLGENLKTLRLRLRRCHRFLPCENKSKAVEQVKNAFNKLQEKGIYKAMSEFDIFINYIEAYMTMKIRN

Interleukin-5 = biological target: T2, Interleukin-5 (human, UniProt P05113 20-134)
T2 construct: Interleukin-5, human, UniProt P05113; also called IL-5; source: bought: PeproTech (source E. coli)
T2 sequence (P05113 20-134): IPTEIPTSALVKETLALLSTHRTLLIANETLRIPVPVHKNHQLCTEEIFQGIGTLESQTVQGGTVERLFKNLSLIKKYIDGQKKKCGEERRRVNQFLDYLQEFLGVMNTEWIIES

Somatotropin = biological target: T3, Somatotropin (human, UniProt P01241 27-217)
T3 construct: Somatotropin (growth hormone), human, UniProt P01241; see the manufacturer's catalogue number; also called GH; growth hormone; source: bought: PeproTech (source E. coli)
T3 sequence (P01241 27-217): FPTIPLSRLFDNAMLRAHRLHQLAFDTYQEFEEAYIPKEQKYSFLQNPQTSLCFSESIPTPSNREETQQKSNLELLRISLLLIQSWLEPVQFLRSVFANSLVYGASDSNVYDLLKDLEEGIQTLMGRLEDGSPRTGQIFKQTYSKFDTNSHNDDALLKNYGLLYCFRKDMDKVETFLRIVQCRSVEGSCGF

Prolactin = biological target: T4, Prolactin (human, UniProt P01236 29-227)
T4 construct: Prolactin, human, UniProt P01236; see the manufacturer's catalogue number; also called PRL; source: bought: PeproTech (source E. coli)
T4 sequence (looked up): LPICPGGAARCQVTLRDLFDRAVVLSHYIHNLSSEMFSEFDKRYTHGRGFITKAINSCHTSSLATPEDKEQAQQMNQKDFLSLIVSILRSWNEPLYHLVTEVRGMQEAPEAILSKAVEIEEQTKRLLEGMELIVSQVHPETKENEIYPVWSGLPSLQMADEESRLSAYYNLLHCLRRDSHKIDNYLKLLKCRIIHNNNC

Interleukin-26 = biological target: T5, Interleukin-26 (human, UniProt Q9NPH9 22-171)
T5 construct: Interleukin-26, human, UniProt Q9NPH9; see the manufacturer's catalogue number; also called IL-26; source: bought: R&D Systems (source E. coli)
T5 sequence (looked up): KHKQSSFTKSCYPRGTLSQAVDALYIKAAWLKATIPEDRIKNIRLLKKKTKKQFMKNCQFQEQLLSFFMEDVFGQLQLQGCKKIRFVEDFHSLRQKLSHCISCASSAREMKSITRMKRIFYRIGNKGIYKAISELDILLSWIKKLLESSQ

Leptin = biological target: T6, Leptin (human, UniProt P41159 22-167)
T6 construct: Leptin, human, UniProt P41159; see the manufacturer's catalogue number; source: bought: PeproTech (source E. coli)
T6 sequence (P41159 22-167): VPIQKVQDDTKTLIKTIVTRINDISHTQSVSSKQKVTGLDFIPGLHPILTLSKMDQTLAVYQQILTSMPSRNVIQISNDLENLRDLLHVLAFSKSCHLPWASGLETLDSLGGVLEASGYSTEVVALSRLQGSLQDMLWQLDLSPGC

Thrombopoietin = biological target: T7, Thrombopoietin (human, UniProt P40225 22-353)
T7 construct: Thrombopoietin, human, UniProt P40225; see the manufacturer's catalogue number; also called THPO; source: bought: SCI-Store (Russia) (source CHO)
T7 sequence (P40225 22-353): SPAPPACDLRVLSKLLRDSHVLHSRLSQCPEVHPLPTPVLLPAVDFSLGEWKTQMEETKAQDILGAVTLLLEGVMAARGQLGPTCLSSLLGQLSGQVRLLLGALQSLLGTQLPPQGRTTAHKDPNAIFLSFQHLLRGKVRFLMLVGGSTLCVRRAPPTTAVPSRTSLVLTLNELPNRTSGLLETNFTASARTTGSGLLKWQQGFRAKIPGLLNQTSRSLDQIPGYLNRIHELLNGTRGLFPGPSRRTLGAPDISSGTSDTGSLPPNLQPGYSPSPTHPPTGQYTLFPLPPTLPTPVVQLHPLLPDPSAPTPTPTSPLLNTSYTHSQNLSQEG

Kd1 (heterogeneous ligand model, population 1) (Interleukin-10): 2.55 µM
Kd2 (heterogeneous ligand model, population 2) (Interleukin-10): 2.66 µM
kd1 (heterogeneous ligand model, population 1) (Interleukin-10): 0.0106 s⁻¹
kd2 (heterogeneous ligand model, population 2) (Interleukin-10): 0.000519 s⁻¹
Kd1 (heterogeneous ligand model, population 1) (Interleukin-5): 3.66 nM
Kd2 (heterogeneous ligand model, population 2) (Interleukin-5): 833 nM
kd1 (heterogeneous ligand model, population 1) (Interleukin-5): 0.000612 s⁻¹
kd2 (heterogeneous ligand model, population 2) (Interleukin-5): 0.00712 s⁻¹
Kd1 (heterogeneous ligand model, population 1) (Somatotropin): 42.9 nM
Kd2 (heterogeneous ligand model, population 2) (Somatotropin): 266 nM
kd1 (heterogeneous ligand model, population 1) (Somatotropin): 0.000669 s⁻¹
kd2 (heterogeneous ligand model, population 2) (Somatotropin): 0.0142 s⁻¹
Kd1 (heterogeneous ligand model, population 1) (Prolactin): 54.6 nM
Kd2 (heterogeneous ligand model, population 2) (Prolactin): 906 nM
kd1 (heterogeneous ligand model, population 1) (Prolactin): 0.000981 s⁻¹
kd2 (heterogeneous ligand model, population 2) (Prolactin): 0.0103 s⁻¹
Kd1 (heterogeneous ligand model, population 1) (Interleukin-26): 9.02 nM
Kd2 (heterogeneous ligand model, population 2) (Interleukin-26): 1.32 µM
kd1 (heterogeneous ligand model, population 1) (Interleukin-26): 0.000144 s⁻¹
kd2 (heterogeneous ligand model, population 2) (Interleukin-26): 0.00509 s⁻¹
Kd1 (heterogeneous ligand model, population 1) (Leptin): 143 nM
Kd2 (heterogeneous ligand model, population 2) (Leptin): 404 nM
kd1 (heterogeneous ligand model, population 1) (Leptin): 0.000452 s⁻¹
kd2 (heterogeneous ligand model, population 2) (Leptin): 0.0307 s⁻¹
Kd1 (heterogeneous ligand model, population 1) (Thrombopoietin): 834 pM
Kd2 (heterogeneous ligand model, population 2) (Thrombopoietin): 41.2 nM
kd1 (heterogeneous ligand model, population 1) (Thrombopoietin): 0.000409 s⁻¹
kd2 (heterogeneous ligand model, population 2) (Thrombopoietin): 0.00829 s⁻¹
B1: Human S100P protein (recombinant, Ca^2+-loaded) (natural protein)
chain: MTELETAMGMIIDVFSRYSGSEGSTQTLTKGELKVLMEKELPGFLQSGKDKDAVDKLLKDLDANGDAQVDFSEFIVFVAAITSACHKYFEKAGLK
notes: S100P protein, human, recombinant; probably the whole 95-residue protein (surmise); also called wild-type S100P; WT S100P; source: E. coli, prepared as previously described [28]
